Assay results published in patent US20040229242, “Methods of capturing, detecting and quantifying RNA:DNA hybrids and a modified RNase H useful therein” (published 2004).

Key:
[1] = target: T1, RNase H1 D94G/D134A mutant (Escherichia coli, UniProt P0A7Y4 SEQ:1-155); assay: competition; conditions: 25 C
T1 chain: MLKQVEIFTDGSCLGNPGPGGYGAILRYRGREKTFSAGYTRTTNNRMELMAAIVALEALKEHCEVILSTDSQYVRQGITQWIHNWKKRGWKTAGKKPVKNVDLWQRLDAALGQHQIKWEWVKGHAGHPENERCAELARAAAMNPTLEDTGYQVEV

[2] = target: T2, E. coli RNase H1 D134A (nuclease-deficient parent) (Escherichia coli) (UniProt P0A7Y4); assay: competition; conditions: 25 C
T2 sequence: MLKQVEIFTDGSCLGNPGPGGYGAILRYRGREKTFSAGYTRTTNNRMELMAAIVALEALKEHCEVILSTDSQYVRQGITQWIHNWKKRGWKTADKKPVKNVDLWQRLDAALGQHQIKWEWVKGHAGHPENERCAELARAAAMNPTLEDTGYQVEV

[3] = target: T3, E. coli RNase H1 D134A (nuclease-deficient parent) (Escherichia coli, UniProt P0A7Y4 SEQ:1-155); assay: filter; 50 mM NaCl, 1 mM EDTA, HEPES pH 7.0, 25 C; conditions: label: 32P
T3 chain: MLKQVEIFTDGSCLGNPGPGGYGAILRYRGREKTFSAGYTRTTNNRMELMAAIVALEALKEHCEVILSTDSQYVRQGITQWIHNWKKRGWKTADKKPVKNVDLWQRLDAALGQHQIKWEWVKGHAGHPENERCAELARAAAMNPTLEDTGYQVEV

[4] = target: T1, RNase H1 D94G/D134A mutant; assay: filter; 50 mM NaCl, 1 mM EDTA, HEPES pH 7.0, 25 C
[5] = target: T3, E. coli RNase H1 D134A …; assay: FP filter; nitrocellulose filter binding; 50 mM NaCl, 1 mM EDTA, 20 mM HEPES pH 7.0, 25 C; conditions: label: 32P end label on DNA strand
Description: In the experiment, serial dilutions of the indicated RNase H proteins were individually incubated in 1×FB Buffer [100 μg/ml BSA; 50 mM NaCl; 1 mM EDTA; 20 mM HEPES, pH 7.0] with a radiolabeled RNA:DNA hybrid of the following sequence:
After 30 minutes incubation at 25° C., the 50 μl reactions were filtered quickly through buffer-equilibrated nitrocellulose filters and washed twice with 500 μl Wash Buffer [10% Glycerol, 50 mM NaCl; 1 mM EDTA; 20 mM HEPES, pH 7.0]. […] The amount of RNA:DNA hybrid retained by each filter was directly quantitated from the damp filters by Cerenkov counting. Each protein was tested in triplicate and the results averaged. Control filters to determine total input radioactivity were used to calculate the percent of total input hybrid bound. SDS-PAGE and densitometry re-confirmed protein concentrations.

[6] = competition vs RNA:DNA#1, filter binding
[7] = competition vs RNA:DNA#2, filter binding
[8] = competition vs RNA:DNA#3, filter binding

heat-denatured sheared salmon sperm ssDNA
IC50 [1, 6]: 9000 nM
IC50 [1, 7]: 15000 nM
IC50 [1, 8]: 10000 nM
IC50 [2, 6]: 1700 nM
IC50 [2, 7]: 5500 nM
IC50 [2, 8]: 2900 nM

B1: RNA:DNA#3 (DNA:RNA)
RNA: AGUUCGACGAGCAUGGAGAGGUCAG
DNA: CTGACCTCTCCATGCTCGTCGAACT
Kd [3]: 8 nM
Kd ([4]; label: 32P): 5.5 nM

B2: RNA:DNA#2 (DNA:RNA)
RNA: GGCGAACAGGACUGCGUAUGAUAGG
DNA: CCTATCATACGCAGTCCTGTTCGCC
Kd [3]: 8 nM
Kd ([4]; label: 32P): 6 nM

B3: RNA:DNA#1 (DNA:RNA)
RNA: GGACCGGAAAGGUACGAGCAUGUGA
DNA: TCACATGCTCGTACCTTTCCGGTCC
Kd ([4]; label: 32P end label on DNA strand): 5.1 nM
Kd [5]: 10 nM
